Experimental data reported in US20210123065.

Test system: Che9c RecT annealase (Mycobacteriophage Che9c)
Assay: cell_activity
Details: oligo recombineering, about 1 ug oligo, M. smegmatis

Q: Which activity (recombinants per survivor) does the source give for “180-mer hyg oligo carrying 60 base insertion” here?
A: The activity (recombinants per survivor) was 2e-06.
